B1: HDV Ribozyme (parent)
chain: GGCCGGCAUGGUCCCAGCCUCCUCGCUGGCGCCGGCUGGGCAACAUUCCGAGGGGACCGUCCCCUCGGUAAUGGCGAAUGGGACCCA

Variants of: B1
Assay: self-cleavage, relative activity (ratio to wild type); higher = more cleavage; co-transcriptional

Variant | self-cleavage
C61U G76U | 1.06
C61U G76C | 1.05
C61U G76A | 1.19
C62U G74U | 0.679
C61G G74U | 0.466
C61G A70G | 0.844
C62U C75G | 0.406
C62U C75A | 0.166
C62A G74C | 0.113
C61U C66A | 0.722
C61A G80U | 0.203
C61A G80A | 0.41
C61A G80C | 0.201
C62A G81A | 0.332
C63A C64U | 0.903
C63A C64G | 0.506
C61A C75U | 0.178
C61A C75G | 0.177
C61U A78C | 0.182
C62A G82A | 0.35
C61A C84U | 0.831
C61A C84A | 0.831
C61A C66G | 0.942
C61A C66U | 1.1

Variant | self-cleavage
C61A C66A | 0.992
C61U G80C | 0.115
C63G G76A | 0.974
C63G G76C | 0.967
C62G C84G | 0.482
C61U U65A | 0.616
C61U U65G | 0.864
C63G A83G | 0.519
C61G G81U | 0.358
U60G U65G | 0.883
C61A C85G | 0.988
U60G U69A | 0.965
C63A A87C | 1
C63A A87U | 1.03
C63A A87G | 0.946
C63A G74A | 0.478
C63A G74C | 0.312
C63A G74U | 0.515
U60G G74U | 0.665
C62U G82U | 0.402
C62U U72G | 0.649
C62U U72A | 0.441
C63A U69G | 0.884
C63A U69A | 0.965

Variant | self-cleavage
C63A U69C | 1.12
C62U C85A | 0.847
C62U C85G | 0.892
C62U C85U | 0.964
U60G C84A | 0.752
U60G C84U | 0.798
U60G C84G | 0.902
U60G G82C | 0.133
U60G G82U | 0.309
C61A C86G | 0.908
C63A A77C | 0.268
C63A A77U | 0.356
C61A C62A | 0.904
C61U G68U | 0.95
C61U G68C | 0.581
C63A A78G | 0.404
C63A A78U | 0.269
C62U A77U | 0.429
C63G C86G | 0.95
C61U A70G | 1.01
C61U A70C | 0.892
C61U G74U | 0.554
U60G C75U | 0.231
C61G U69G | 0.831

Variant | self-cleavage
C61G U69A | 0.789
C62G U69C | 0.534
C62A G76A | 1.13
C61A C63U | 1.07
C61A C63G | 0.499
C61A C63A | 0.689
C63G C85G | 1.02
C63G C85U | 0.92
C61A A83U | 0.47
C62A C75A | 0.0314
C62U A78G | 0.475
C62G G73U | 0.193
C62U G76U | 1.06
C62U G76A | 1.12
C63A A83G | 0.712
C61G A77G | 0.831
C61G A77C | 0.203
C62G G80U | 0.185
C62G G80A | 0.185
C62A G80A | 0.282
C62A G80C | 0.0594
C61U G73C | 0.629
C61U G73U | 0.383
C63A U72A | 0.542

Variant | self-cleavage
C63A U72C | 0.532
C63A U72G | 0.369
C61U C86G | 0.847
C61U C86U | 1.03
C61A U65G | 0.92
C61A U65A | 0.774
C63A U79A | 0.636
C63A U79C | 0.455
C62U G68A | 0.946
C62G G74C | 0.172
C62G G74A | 0.402
C62G G74U | 0.372
C62G C63U | 0.604
C62G C63G | 0.706
C62G C63A | 0.639
C61G G82A | 0.284
C61G G82C | 0.233
C62G A70C | 0.554
C62G A70G | 0.578
C62A U72A | 0.54
C62A U72G | 0.617
C62A U72C | 0.38
C62A U69G | 1.03
C62A U69C | 0.882

Variant | self-cleavage
C62A U69A | 0.997
U60G U72G | 0.646
C62A C63U | 0.831
C61G U72C | 0.401
C61G U72G | 0.332
C61G U72A | 0.457
U60G C85U | 1.15
U60G C85A | 0.767
U60G C85G | 1.09
C63A C66A | 0.302
C63A C66G | 0.494
C63A C66U | 0.814
C61U C85G | 0.981
C61U C85A | 1.07
C61A G82U | 0.507
C61G G76C | 0.967
C61A G74U | 0.63
C61A G74A | 0.561
C62A A87U | 0.984
C61U C64A | 0.89
C62A C66A | 0.32
C62A C66G | 0.623
C61U C75U | 0.254
C61U C75G | 0.151

Variant | self-cleavage
C61U C75A | 0.201
C61A G67C | 0.831
C61A G67A | 0.9
C61A G67U | 1.12
C62U G81U | 0.529
C62U G81C | 0.215
C63A U65C | 0.525
C63A U65A | 0.427
C63A U65G | 0.914
C63G A70C | 0.415
C61A G68A | 1.08
C61G C62G | 1.05
C63A C84A | 0.96
C63A C84G | 0.759
C63G C84U | 0.629
C63G C84A | 1.06
C62A U65G | 0.359
C63A C85A | 0.618
C63A C85U | 0.911
C61U A83G | 0.692
U60G G80C | 0.141
U60G G80A | 0.286
C61A A87C | 1.07
C61A A87U | 0.978

Variant | self-cleavage
C61A A87G | 1
C62A C85A | 0.767
U60G G76A | 1.08
C62U U79C | 0.432
C62U U79G | 0.831
C62A A70U | 0.955
C61G | 0.986
C61U | 1.01
C61A | 1.02
C62U G80C | 0.281
C62U G80A | 0.348
C62U G80U | 0.253
C62U A83G | 0.818
C61G U79C | 0.499
C61G U79A | 0.739
C62G C66G | 0.249
C61A G73U | 0.353
C61A G73A | 0.641
C61U C62U | 0.644
C61U C62A | 0.978
C61U C62G | 0.694
C62A C64U | 0.892
C61G C85A | 0.935
C61G C85U | 1.04

Variant | self-cleavage
C61G C85G | 0.906
U60G U79G | 0.831
C63G G74A | 0.326
C62G U65G | 0.32
C62A U79A | 0.636
C62A U79C | 0.339
C61G C66G | 0.745
C61G C66A | 0.674
C62U U65A | 1.08
C62U C64A | 0.845
C62U C64G | 0.482
C62U C64U | 0.796
C61G G80A | 0.434
C63A C75U | 0.0906
C63A C75A | 0.338
C62G C85G | 0.911
C63A G81C | 0.188
C63A G81U | 0.244
C62G G68C | 0.196
C61U C63A | 0.758
C61U C63G | 0.243
C61G A78U | 0.219
C61G A78C | 0.177
C63G C75A | 0.111

Variant | self-cleavage
C63G C75G | 0.0489
C62G A71U | 0.489
C62G A71C | 0.443
C61G C75U | 0.101
C61A A71C | 1.12
C62U U69A | 1.24
C61G A83U | 0.151
C61G A83C | 0.364
C61A C64G | 0.791
C61A C64A | 0.96
C63A G68U | 0.764
C63A G68A | 0.801
C62A A83U | 0.494
C62A A83G | 0.683
C61G A87U | 0.943
C61G A87G | 0.994
C61U U79A | 0.88
C63G G68U | 0.504
C63G G68A | 0.366
C62U C86A | 0.82
C62U C86G | 0.831
C63A G67U | 0.451
C63A G67A | 0.35
C63A G67C | 0.544

Variant | self-cleavage
C61U G82C | 0.281
C63A G76U | 1.15
C63A G76A | 0.875
C63A G76C | 0.976
C61U U69A | 0.914
C61U U69C | 0.972
C62U G67A | 1.12
C62A C84A | 0.862
C62A C84G | 0.764
C62G U72G | 0.277
C62G U72C | 0.525
C62G U72A | 0.467
C63G A87C | 0.737
C63G A87G | 0.858
C62A G67A | 0.578
C62A G67C | 0.78
C62A G67U | 0.464
C61A G76C | 1.08
C61A G76A | 1.02
C63A G82U | 0.467
C63A G82A | 0.408
C61U G81U | 0.273
C61U G81C | 0.29
C62A A77U | 0.45

Variant | self-cleavage
C62A A77G | 1.17
C62G G82A | 0.267
C62A A78U | 0.185
C62A A78G | 0.78
C62A A78C | 0.101
C61A G81U | 0.347
C61A G81A | 0.354
C62A G73A | 0.545
C62A G73C | 0.465
C61U A71U | 1.02
C61U A71G | 0.997
C61U C84U | 0.636
C61G G73U | 0.327
C61G G73C | 0.264
C62U G73C | 0.354
C61U U72C | 0.356
C61U U72A | 0.703
C61U A77U | 0.475
C62G C75G | 0.26
C62G C75A | 0.17
C63A C86A | 1.05
C63G A77G | 0.268
C63G A77U | 0.277
C63G A77C | 0.58

Variant | self-cleavage
C62G G67C | 0.147
C62G U79A | 0.489
C62G U79G | 1.03
C62U C66G | 0.746
C62U C66A | 0.815
C63A A71G | 0.504
C63A A71U | 1.11
C61A U79A | 0.642
C61A U79G | 1.14
C61G U65G | 0.72
C62U A87U | 1.08
C62U C63U | 1.11
C62U C63A | 0.927
C62U C63G | 0.654
C63G G73C | 0.437
C61A A78C | 0.145
C61G G68A | 1.02
C61G C64G | 0.527
C61G C64A | 0.582
U60G G68C | 0.965
U60G G68A | 1.02
C61G C63A | 0.718
C61G C63U | 1.02
C63G C66A | 0.289

Variant | self-cleavage
C63G C66G | 0.201
C62G A87G | 0.716
C62G A78U | 0.297
C62G A78G | 0.745
C63G A78C | 0.101
C62U C84A | 1.14
C62U C84U | 0.819
C62U C84G | 0.692
C61G C86A | 1.03
U60G C86U | 0.959
U60G C86A | 1.01
C62U A71C | 0.812
C62U A71G | 0.997
C63G G67A | 0.372
C63G G67C | 0.342
C63G G67U | 0.293
C62G G81U | 0.133
C62A C86A | 1.01
C63A G80A | 0.388
C61A U72A | 0.745
U60G G81C | 0.268
U60G G81A | 0.269
